In US20230250154A1:

Target: Protease Mixtures
Assay: cell-based or functional assay

B1: Variant A2M, bait region SEQ ID NO 133, P01023 24-1474 (protein)
chain: SVSGKPQYMVLVPSLLHTETTEKGCVLLSYLNETVTVSASLESVRGNRSLFTDLEAENDVLHCVAFAVPKSSSNEEVMFLTVQVKGPTQEFKKRTTVMVKNEDSLVFVQTDKSIYKPGQTVKFRVVSMDENFHPLNELIPLVYIQDPKGNRIAQWQSFQLEGGLKQFSFPLSSEPFQGSYKVVVQKKSGGRTEHPFTVEEFVLPKFEVQVTVPKIITILEEEMNVSVCGLYTYGKPVPGHVTVSICRKYSDASDCHGEDSQAFCEKFSGQLNSHGCFYQQVKTKVFQLKRKEYEMKLHTEAQIQEEGTVVELTGRQSSEITRTITKLSFVKVDSHFRQGIPFFGQVRLVDGKGVPIPNKVIFIRGNEANYYSNATTDEHGLVQFSINTTNVMGTSLTVRVNYKDRSPCYGYQWVSEEHEEAHHTAYLVFSPSKSFVHLEPMSHELPCGHTQTVQAHYILNGGTLLGLKKLSFYYLIMAKGGIVRTGTHGLLVKQEDMKGHFSISIPVKSDIAPVARLLIYAVLPTGDVIGDSAKYDVENCLANKVDLSFSPSQSLPASHAHLRVTAAPQSVCALRAVDQSVLLMKPDAELSASSVYNLLPEKDLTGFPGPLNDQDDEDCINRHNVYINGITYTPVSSTNEKDMYSFLEDMGLKAFTNSKIRKPKMCPQLEQYEMHGPIPENFFGVEGEGEGESELEGRGSSEDLVVQIVEEPHTKLRKYFPETWIWDLVVVNSAGVAEVGVTVPDTITEWKAGAFCLSEDAGLGISSTASLRAFQPFFVELTMPYSVIRGEAFTLKATVLNYLPKCIRVSVQLEASPAFLAVPVEKEQAPHCICANGRQTVSWAVTPKSLGNVNFTVSAEALESQELCGTEVPSVPEHGRKDTVIKPLLVEPEGLEKETTFNSLLCPSGGEVSEELSLKLPPNVVEESARASVSVLGDILGSAMQNTQNLLQMPYGCGEQNMVLFAPNIYVLDYLNETQQLTPEIKSKAIGYLNTGYQRQLNYKHYDGSYSTFGERYGRNQGNTWLTAFVLKTFAQARAYIFIDEAHITQALIWLSQRQKDNGCFRSSGSLLNNAIKGGVEDEVTLSAYITIALLEIPLTVTHPVVRNALFCLESAWKTAQEGDHGSHVYTKALLAYAFALAGNQDKRKEVLKSLNEEAVKKDNSVHWERPQKPKAPVGHFYEPQAPSAEVEMTSYVLLAYLTAQPAPTSEDLTSATNIVKWITKQQNAQGGFSSTQDTVVALHALSKYGAATFTRTGKAAQVTIQSSGTFSSKFQVDNNNRLLLQQVSLPELPGEYSMKVTGEGCVYLQTSLKYNILPEKEEFPFALGVQTLPQTCDEPKAHTSFQISLSVSYTGSRSASNMAIVDVKMVSGFIPLKPTVKMLERSNHVSRTEVSSNHVLIYLDKVSNQTLSLFFTVLQDVPVRDLKPAIVKVYDYYETDEFAIAEYNAPCSKDLGNADYKDDDDKGASHHHHHH
  Protease Inhibition (% of WT); Protease Mixtures, IGD Substrate: 75 % of WT

B2: Variant A2M, bait region SEQ ID NO 131, P01023 24-1474 (protein)
chain: SVSGKPQYMVLVPSLLHTETTEKGCVLLSYLNETVTVSASLESVRGNRSLFTDLEAENDVLHCVAFAVPKSSSNEEVMFLTVQVKGPTQEFKKRTTVMVKNEDSLVFVQTDKSIYKPGQTVKFRVVSMDENFHPLNELIPLVYIQDPKGNRIAQWQSFQLEGGLKQFSFPLSSEPFQGSYKVVVQKKSGGRTEHPFTVEEFVLPKFEVQVTVPKIITILEEEMNVSVCGLYTYGKPVPGHVTVSICRKYSDASDCHGEDSQAFCEKFSGQLNSHGCFYQQVKTKVFQLKRKEYEMKLHTEAQIQEEGTVVELTGRQSSEITRTITKLSFVKVDSHFRQGIPFFGQVRLVDGKGVPIPNKVIFIRGNEANYYSNATTDEHGLVQFSINTTNVMGTSLTVRVNYKDRSPCYGYQWVSEEHEEAHHTAYLVFSPSKSFVHLEPMSHELPCGHTQTVQAHYILNGGTLLGLKKLSFYYLIMAKGGIVRTGTHGLLVKQEDMKGHFSISIPVKSDIAPVARLLIYAVLPTGDVIGDSAKYDVENCLANKVDLSFSPSQSLPASHAHLRVTAAPQSVCALRAVDQSVLLMKPDAELSASSVYNLLPEKDLTGFPGPLNDQDDEDCINRHNVYINGITYTPVSSTNEKDMYSFLEDMGLKAFTNSKIRKPKMCPQLEQYEMHGPEGEGEGEGISEDLVVQIPENFFGVKEEEGLGSVEEPHTKLRKYFPETWIWDLVVVNSAGVAEVGVTVPDTITEWKAGAFCLSEDAGLGISSTASLRAFQPFFVELTMPYSVIRGEAFTLKATVLNYLPKCIRVSVQLEASPAFLAVPVEKEQAPHCICANGRQTVSWAVTPKSLGNVNFTVSAEALESQELCGTEVPSVPEHGRKDTVIKPLLVEPEGLEKETTFNSLLCPSGGEVSEELSLKLPPNVVEESARASVSVLGDILGSAMQNTQNLLQMPYGCGEQNMVLFAPNIYVLDYLNETQQLTPEIKSKAIGYLNTGYQRQLNYKHYDGSYSTFGERYGRNQGNTWLTAFVLKTFAQARAYIFIDEAHITQALIWLSQRQKDNGCFRSSGSLLNNAIKGGVEDEVTLSAYITIALLEIPLTVTHPVVRNALFCLESAWKTAQEGDHGSHVYTKALLAYAFALAGNQDKRKEVLKSLNEEAVKKDNSVHWERPQKPKAPVGHFYEPQAPSAEVEMTSYVLLAYLTAQPAPTSEDLTSATNIVKWITKQQNAQGGFSSTQDTVVALHALSKYGAATFTRTGKAAQVTIQSSGTFSSKFQVDNNNRLLLQQVSLPELPGEYSMKVTGEGCVYLQTSLKYNILPEKEEFPFALGVQTLPQTCDEPKAHTSFQISLSVSYTGSRSASNMAIVDVKMVSGFIPLKPTVKMLERSNHVSRTEVSSNHVLIYLDKVSNQTLSLFFTVLQDVPVRDLKPAIVKVYDYYETDEFAIAEYNAPCSKDLGNADYKDDDDKGASHHHHHH
  Protease Inhibition (% of WT); Protease Mixtures, IGD Substrate: 150 % of WT

B3: Variant A2M, bait region SEQ ID NO 132, P01023 24-1474 (protein)
chain: SVSGKPQYMVLVPSLLHTETTEKGCVLLSYLNETVTVSASLESVRGNRSLFTDLEAENDVLHCVAFAVPKSSSNEEVMFLTVQVKGPTQEFKKRTTVMVKNEDSLVFVQTDKSIYKPGQTVKFRVVSMDENFHPLNELIPLVYIQDPKGNRIAQWQSFQLEGGLKQFSFPLSSEPFQGSYKVVVQKKSGGRTEHPFTVEEFVLPKFEVQVTVPKIITILEEEMNVSVCGLYTYGKPVPGHVTVSICRKYSDASDCHGEDSQAFCEKFSGQLNSHGCFYQQVKTKVFQLKRKEYEMKLHTEAQIQEEGTVVELTGRQSSEITRTITKLSFVKVDSHFRQGIPFFGQVRLVDGKGVPIPNKVIFIRGNEANYYSNATTDEHGLVQFSINTTNVMGTSLTVRVNYKDRSPCYGYQWVSEEHEEAHHTAYLVFSPSKSFVHLEPMSHELPCGHTQTVQAHYILNGGTLLGLKKLSFYYLIMAKGGIVRTGTHGLLVKQEDMKGHFSISIPVKSDIAPVARLLIYAVLPTGDVIGDSAKYDVENCLANKVDLSFSPSQSLPASHAHLRVTAAPQSVCALRAVDQSVLLMKPDAELSASSVYNLLPEKDLTGFPGPLNDQDDEDCINRHNVYINGITYTPVSSTNEKDMYSFLEDMGLKAFTNSKIRKPKMCPQLEQYEMHGPEGEGEGEGIPENFFGVSELEGRGSSEDLVVQIVEEPHTKLRKYFPETWIWDLVVVNSAGVAEVGVTVPDTITEWKAGAFCLSEDAGLGISSTASLRAFQPFFVELTMPYSVIRGEAFTLKATVLNYLPKCIRVSVQLEASPAFLAVPVEKEQAPHCICANGRQTVSWAVTPKSLGNVNFTVSAEALESQELCGTEVPSVPEHGRKDTVIKPLLVEPEGLEKETTFNSLLCPSGGEVSEELSLKLPPNVVEESARASVSVLGDILGSAMQNTQNLLQMPYGCGEQNMVLFAPNIYVLDYLNETQQLTPEIKSKAIGYLNTGYQRQLNYKHYDGSYSTFGERYGRNQGNTWLTAFVLKTFAQARAYIFIDEAHITQALIWLSQRQKDNGCFRSSGSLLNNAIKGGVEDEVTLSAYITIALLEIPLTVTHPVVRNALFCLESAWKTAQEGDHGSHVYTKALLAYAFALAGNQDKRKEVLKSLNEEAVKKDNSVHWERPQKPKAPVGHFYEPQAPSAEVEMTSYVLLAYLTAQPAPTSEDLTSATNIVKWITKQQNAQGGFSSTQDTVVALHALSKYGAATFTRTGKAAQVTIQSSGTFSSKFQVDNNNRLLLQQVSLPELPGEYSMKVTGEGCVYLQTSLKYNILPEKEEFPFALGVQTLPQTCDEPKAHTSFQISLSVSYTGSRSASNMAIVDVKMVSGFIPLKPTVKMLERSNHVSRTEVSSNHVLIYLDKVSNQTLSLFFTVLQDVPVRDLKPAIVKVYDYYETDEFAIAEYNAPCSKDLGNADYKDDDDKGASHHHHHH
  Protease Inhibition (% of WT); Protease Mixtures, Collagen Substrate: 120 % of WT
  Protease Inhibition (% of WT); Protease Mixtures, IGD Substrate: 243 % of WT

B4: Variant A2M, bait region SEQ ID NO 134, P01023 24-1474 (protein)
chain: SVSGKPQYMVLVPSLLHTETTEKGCVLLSYLNETVTVSASLESVRGNRSLFTDLEAENDVLHCVAFAVPKSSSNEEVMFLTVQVKGPTQEFKKRTTVMVKNEDSLVFVQTDKSIYKPGQTVKFRVVSMDENFHPLNELIPLVYIQDPKGNRIAQWQSFQLEGGLKQFSFPLSSEPFQGSYKVVVQKKSGGRTEHPFTVEEFVLPKFEVQVTVPKIITILEEEMNVSVCGLYTYGKPVPGHVTVSICRKYSDASDCHGEDSQAFCEKFSGQLNSHGCFYQQVKTKVFQLKRKEYEMKLHTEAQIQEEGTVVELTGRQSSEITRTITKLSFVKVDSHFRQGIPFFGQVRLVDGKGVPIPNKVIFIRGNEANYYSNATTDEHGLVQFSINTTNVMGTSLTVRVNYKDRSPCYGYQWVSEEHEEAHHTAYLVFSPSKSFVHLEPMSHELPCGHTQTVQAHYILNGGTLLGLKKLSFYYLIMAKGGIVRTGTHGLLVKQEDMKGHFSISIPVKSDIAPVARLLIYAVLPTGDVIGDSAKYDVENCLANKVDLSFSPSQSLPASHAHLRVTAAPQSVCALRAVDQSVLLMKPDAELSASSVYNLLPEKDLTGFPGPLNDQDDEDCINRHNVYINGITYTPVSSTNEKDMYSFLEDMGLKAFTNSKIRKPKMCPQLEQYEMHGPSELEGRGSIPENFFGVKEEEGLGSSEDLVVQIVEEPHTKLRKYFPETWIWDLVVVNSAGVAEVGVTVPDTITEWKAGAFCLSEDAGLGISSTASLRAFQPFFVELTMPYSVIRGEAFTLKATVLNYLPKCIRVSVQLEASPAFLAVPVEKEQAPHCICANGRQTVSWAVTPKSLGNVNFTVSAEALESQELCGTEVPSVPEHGRKDTVIKPLLVEPEGLEKETTFNSLLCPSGGEVSEELSLKLPPNVVEESARASVSVLGDILGSAMQNTQNLLQMPYGCGEQNMVLFAPNIYVLDYLNETQQLTPEIKSKAIGYLNTGYQRQLNYKHYDGSYSTFGERYGRNQGNTWLTAFVLKTFAQARAYIFIDEAHITQALIWLSQRQKDNGCFRSSGSLLNNAIKGGVEDEVTLSAYITIALLEIPLTVTHPVVRNALFCLESAWKTAQEGDHGSHVYTKALLAYAFALAGNQDKRKEVLKSLNEEAVKKDNSVHWERPQKPKAPVGHFYEPQAPSAEVEMTSYVLLAYLTAQPAPTSEDLTSATNIVKWITKQQNAQGGFSSTQDTVVALHALSKYGAATFTRTGKAAQVTIQSSGTFSSKFQVDNNNRLLLQQVSLPELPGEYSMKVTGEGCVYLQTSLKYNILPEKEEFPFALGVQTLPQTCDEPKAHTSFQISLSVSYTGSRSASNMAIVDVKMVSGFIPLKPTVKMLERSNHVSRTEVSSNHVLIYLDKVSNQTLSLFFTVLQDVPVRDLKPAIVKVYDYYETDEFAIAEYNAPCSKDLGNADYKDDDDKGASHHHHHH
  Protease Inhibition (% of WT); Protease Mixtures, IGD Substrate: 220 % of WT
